The source of these data is the supplement of paper PMC5998384.

Data set [1] relates to HeLa Kyoto. As to the kind of experiment: thermal stability score vs G1/S (z-score of summed log2 fold changes over temperatures); higher = more thermally stable than in G1/S.
The test system of data set [2] is HeLa Kyoto. The data set can be described thus: melting temperature (median over replicates), in situ; higher = more thermally stable.
Data set [3] has as its system HeLa Kyoto. As to the kind of experiment: solubility in G1/S (NP-40 vs SDS abundance) (log2 ratio); higher = more soluble. The following applies: cell cycle stage: G1/S.
Data set [4] concerns HeLa Kyoto. As to the kind of experiment: solubility change mitosis vs G1/S (difference of NP-40 vs SDS log2 ratios) (log2 ratio difference); higher = more soluble in mitosis.
Where [5] appears, read: cell cycle stage: early G1 (4.5 h after nocodazole release).
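For melting temperature (median over replicates), in situ in this document: HeLa Kyoto cells synchronized by double thymidine or nocodazole block, proteins quantified by TMT10plex mass spectrometry, three independent biological replicates.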
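For solubility change mitosis vs G1/S (difference of NP-40 vs SDS log2 ratios) in this document: synchronized HeLa Kyoto cells (double thymidine block for G1/S, nocodazole release for mitosis), protein amounts in NP-40 versus SDS lysates quantified by mass spectrometry, three biological replicates.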
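For solubility in G1/S (NP-40 vs SDS abundance) in this document: HeLa Kyoto cells arrested at G1/S by double thymidine block, proteins quantified by TMT10plex mass spectrometry in mild NP-40 versus SDS extracts, three biological replicates.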
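For thermal stability score vs G1/S (z-score of summed log2 fold changes over temperatures) in this document: synchronized HeLa Kyoto cells, proteins quantified by TMT10plex mass spectrometry, three biological replicates, mitosis taken 0.5 h after nocodazole release, G1/S directly after double thymidine block.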

“MWKLLPAAGPAGGEPYRLLTGVEYVVGRKNCAILIENDQSISRNHAVLTANFSVTNLSQTDEIPVLTLKDNSKYGTFVNEEKMQNGFSRTLKSGDGITFGVFGSKFRIEYEPLVACSSCLDVSGKTALNQAILQLGGFTVNNWTEECTHLVMVSVKVTIKTICALICGRPIVKPEYFTEFLKAVESKKQPPQIESFYPPLDEPSIGSKNVDLSGRQERKQIFKGKTFIFLNAKQHKKLSSAVVFGGGEARLITEENEEEHNFFLAPGTCVVDTGITNSQTLIPDCQKKWIQSIMDMLQRQGLRPIPEAEIGLAVIFMTTKNYCDPQGHPSTGLKTTTPGPSLSQGVSVDEKLMPSAPVNTTTYVADTESEQADTWDLSERPKEIKVSKMEQKFRMLSQDAPTVKESCKTSSNNNSMVSNTLAKMRIPNYQLSPTKLPSINKSKDRASQQQQTNSIRNYFQPSTKKRERDEENQEMSSCKSARIETSCSLLEQTQPATPSLWKNKEQHLSENEPVDTNSDNNLFTDTDLKSIVKNSASKSHAAEKLRSNKKREMDDVAIEDEVLEQLFKDTKPELEIDVKVQKQEEDVNVRKRPRMDIETNDTFSDEAVPESSKISQENEIGKKRELKEDSLWSAKEISNNDKLQDDSEMLPKKLLLTEFRSLVIKNSTSRNPSGINDDYGQLKNFKKFKKVTYPGAGKLPHIIGGSDLIAHHARKNTELEEWLRQEMEVQNQHAKEESLADDLFRYNPYLKRRR [NBN]”: the thermal stability score was 0.727 in the data set with HeLa Kyoto [1] (setting [5]) and 1.8 with HeLa Kyoto [1] (cell cycle stage: mitosis). For the same sequence, the melting temperature with HeLa Kyoto [2] (cell cycle stage: G1/S) amounted to 48.7 °C; in the data set on HeLa Kyoto [2] (cell cycle stage: mitosis), 49.7 °C. In the data set on HeLa Kyoto [3], the “solubility in G1/S (log2)” value was -0.0211. The “solubility change mitosis (log2)” value with HeLa Kyoto [4] was -0.152.

With “MWLQQRLKGLPGLLSSSWARRLLCLLGLLLLLLWFGGSGARRAAGGLHLLPWSRGEPGAAEPSACLEAATRAWRGLRERGEVVPLGPGVPALVANGFLALDVAANRLWVTPGEREPAVAPDFVPFVQLRPLSALAEAGEAVLLLREGLLRRVRCLQLGSPGPGPVAAGPGPASVSGLAAGSGRDCVLLQEDFLAHRGRPHVYLQRIQLNNPTERVAALQTVGPTAGPAPKAFTSTLEKVGDHQFLLYSGRSPPTPTGLVHLVVVAAKKLVNRLQVAPKTQLDETVLWVVHVSGPINPQVLKSKAAKELKALQDLARKEMLELLDMPAAELLQDHQLLWAQLFSPGVEMKKITDTHTPSGLTVNLTLYYMLSCSPAPLLSPSLSHRERDQMESTLNYEDHCFSGHATMHAENLWPGRLSSVQQILQLSDLWRLTLQKRGCKGLVKVGAPGILQGMVLSFGGLQFTENHLQFQADPDVLHNSYALHGIRYKNDHINLAVLADAEGKPYLHVSVESRGQPVKIYACKAGCLDEPVELTSAPTGHTFSVMVTQPITPLLYISTDLTHLQDLRHTLHLKAILAHDEHMAQQDPGLPFLFWFSVASLITLFHLFLFKLIYNEYCGPGAKPLFRSKEDPSV [KIAA2013]”, the results for the thermal stability score in the data set with HeLa Kyoto [1] (setting [5]) and in the data set on HeLa Kyoto [1] (cell cycle stage: mitosis) were -3.23 and -4.42, respectively. In addition, the melting temperature in the data set with HeLa Kyoto [2] (cell cycle stage: G1/S) was found to be 56.9 °C; in the data set with HeLa Kyoto [2] (cell cycle stage: mitosis) it was 56.1 °C. Moreover, in the data set with HeLa Kyoto [3], the “solubility in G1/S (log2)” value was -0.156. In addition, the “solubility change mitosis (log2)” value with HeLa Kyoto [4] is -0.126.

As for “MWNMLIVAMCLALLGCLQAQELQGHVSIILLGATGDLAKKYLWQGLFQLYLDEAGRGHSFSFHGAALTAPKQGQELMAKALESLSCPKDMAPSHCAEHKDQFLQLSQYRQLKTAEDYQALNKDIEAQLQHAGLREAGRIFYFSVPPFAYEDIARNINSSCRPGPGAWLRVVLEKPFGHDHFSAQQLATELGTFFQEEEMYRVDHYLGKQAVAQILPFRDQNRKALDGLWNRHHVERVEIIMKETVDAEGRTSFYEEYGVIRDVLQNHLTEVLTLVAMELPHNVSSAEAVLRHKLQVFQALRGLQRGSAVVGQYQSYSEQVRRELQKPDSFHSLTPTFAAVLVHIDNLRWEGVPFILMSGKALDERVGYARILFKNQACCVQSEKHWAAAQSQCLPRQLVFHIGHGDLGSPAVLVSRNLFRPSLPSSWKEMEGPPGLRLFGSPLSDYYAYSPVRERDAHSVLLSHIFHGRKNFFITTENLLASWNFWTPLLESLAHKAPRLYPGGAENGRLLDFEFSSGRLFFSQQQPEQLVPGPGPAPMPSDFQVLRAKYRESPLVSAWSEELISKLANDIEATAVRAVRRFGQFHLALSGGSSPVALFQQLATAHYGFPWAHTHLWLVDERCVPLSDPESNFQGLQAHLLQHVRIPYYNIHPMPVHLQQRLCAEEDQGAQIYAREISALVANSSFDLVLLGMGADGHTASLFPQSPTGLDGEQLVVLTTSPSQPHRRMSLSLPLINRAKKVAVLVMGRMKREITTLVSRVGHEPKKWPISGVLPHSGQLVWYMDYDAFLG [H6PD]”, the thermal stability score in the data set with HeLa Kyoto [1] (setting [5]) stood at 1.01; in the data set with HeLa Kyoto [1] (cell cycle stage: mitosis), 2.18. The melting temperature in the data set on HeLa Kyoto [2] (cell cycle stage: G1/S) came to 53.3 °C; in the data set with HeLa Kyoto [2] (cell cycle stage: mitosis) it was 53.7 °C. In the data set with HeLa Kyoto [3], the “solubility in G1/S (log2)” value is 0.122. Moreover, the “solubility change mitosis (log2)” value with HeLa Kyoto [4] was 0.0207.

“MWRGLWTLAAQAARGPRRLCTRRSSGAPAPGSGATIFALSSGQGRCGIAVIRTSGPASGHALRILTAPRDLPLARHASLRLLSDPRSGEPLDRALVLWFPGPQSFTGEDCVEFHVHGGPAVVSGVLQALGSVPGLRPAEAGEFTRRAFANGKLNLTEVEGLADLIHAETEAQRRQALRQLDGELGHLCRGWAETLTKALAHVEAYIDFGEDDNLEEGVLEQADIEVRALQVALGAHLRDARRGQRLRSGVHVVVTGPPNAGKSSLVNLLSRKPVSIVSPEPGTTRDVLETPVDLAGFPVLLSDTAGLREGVGPVEQEGVRRARERLEQADLILAMLDASDLASPSSCNFLATVVASVGAQSPSDSSQRLLLVLNKSDLLSPEGPGPGPDLPPHLLLSCLTGEGLDGLLEALRKELAAVCGDPSTDPPLLTRARHQHHLQGCLDALGHYKQSKDLALAAEALRVARGHLTRLTGGGGTEEILDIIFQDFCVGK [GTPBP3]”: the thermal stability score in the data set with HeLa Kyoto [1] (setting [5]) was -0.238; with HeLa Kyoto [1] (cell cycle stage: mitosis), -0.0908. The figures for the melting temperature with HeLa Kyoto [2] (cell cycle stage: G1/S) and with HeLa Kyoto [2] (cell cycle stage: mitosis) were 53.2 °C and 52.4 °C, respectively. In addition, the “solubility in G1/S (log2)” value in the data set on HeLa Kyoto [3] was 0.505. In addition, in the data set on HeLa Kyoto [4], the “solubility change mitosis (log2)” value stood at 0.0593.

Turning to “MWRLPGARAALRVIRTAVEKLSRAEAGSQTAAGAMERAVVRCVPSEPKLSLSFALADGSHKNMQRDQSEPLGRVLSRIATNALKGHAKAAAAKKSRKSRPNASGGAACSGPGPEPAVFCEPVVKLYYREEAVAEDVLNVDAWQDGAVLQIGDVKYKVERNPPAFTELQLPRYIMAGFPVCPKLSLEFGDPASSLFRWYKEAKPGAAEPEVGVPSSLSPSSPSSSWTETDVEERVYTPSNADIGLRLKLHCTPGDGQRFGHSRELESVCVVEAGPGTCTFDHRHLYTKKVTEDALIRTVSYNILADTYAQTEFSRTVLYPYCAPYALELDYRQNLIQKELTGYNADVICLQEVDRAVFSDSLVPALEAFGLEGVFRIKQHEGLATFYRKSKFSLLSQHDISFYEALESDPLHKELLEKLVLYPSAQEKVLQRSSVLQVSVLQSTKDSSKRICVANTHLYWHPKGGYIRLIQMAVALAHIRHVSCDLYPGIPVIFCGDFNSTPSTGMYHFVINGSIPEDHEDWASNGEEERCNMSLTHFFKLKSACGEPAYTNYVGGFHGCLDYIFIDLNALEVEQVIPLPSHEEVTTHQALPSVSHPSDHIALVCDLKWK [PDE12]”, the figures for the thermal stability score in the data set with HeLa Kyoto [1] (setting [5]) and with HeLa Kyoto [1] (cell cycle stage: mitosis) were -1.65 and -1.58, respectively. Also, the melting temperature in the data set on HeLa Kyoto [2] (cell cycle stage: G1/S) amounted to 52.1 °C; in the data set on HeLa Kyoto [2] (cell cycle stage: mitosis) it was 52.3 °C. For the same sequence, the “solubility in G1/S (log2)” value in the data set with HeLa Kyoto [3] was found to be 0.0541. Besides, the “solubility change mitosis (log2)” value in the data set on HeLa Kyoto [4] is -0.171.

On to “MWRVCARRAQNVAPWAGLEARWTALQEVPGTPRVTSRSGPAPARRNSVTTGYGGVRALCGWTPSSGATPRNRLLLQLLGSPGRRYYSLPPHQKVPLPSLSPTMQAGTIARWEKKEGDKINEGDLIAEVETDKATVGFESLEECYMAKILVAEGTRDVPIGAIICITVGKPEDIEAFKNYTLDSSAAPTPQAAPAPTPAATASPPTPSAQAPGSSYPPHMQVLLPALSPTMTMGTVQRWEKKVGEKLSEGDLLAEIETDKATIGFEVQEEGYLAKILVPEGTRDVPLGTPLCIIVEKEADISAFADYRPTEVTDLKPQVPPPTPPPVAAVPPTPQPLAPTPSAPCPATPAGPKGRVFVSPLAKKLAVEKGIDLTQVKGTGPDGRITKKDIDSFVPSKVAPAPAAVVPPTGPGMAPVPTGVFTDIPISNIRRVIAQRLMQSKQTIPHYYLSIDVNMGEVLLVRKELNKILEGRSKISVNDFIIKASALACLKVPEANSSWMDTVIRQNHVVDVSVAVSTPAGLITPIVFNAHIKGVETIANDVVSLATKAREGKLQPHEFQGGTFTISNLGMFGIKNFSAIINPPQACILAIGASEDKLVPADNEKGFDVASMMSVTLSCDHRVVDGAVGAQWLAEFRKYLEKPITMLL [DLAT]”, for which the results for the thermal stability score in the data set on HeLa Kyoto [1] (setting [5]) and with HeLa Kyoto [1] (cell cycle stage: mitosis) were -1.61 and -3.92, respectively. Moreover, the melting temperature is 54 °C with HeLa Kyoto [2] (cell cycle stage: G1/S) and 52.3 °C with HeLa Kyoto [2] (cell cycle stage: mitosis). In the data set on HeLa Kyoto [3], the “solubility in G1/S (log2)” value amounted to 0.263. For the same sequence, in the data set with HeLa Kyoto [4], the “solubility change mitosis (log2)” value is -0.12.

Take “MWSEGRYEYERIPRERAPPRSHPSDGYNRLVNIVPKKPPLLDRPGEGSYNRYYSHVDYRDYDEGRSFSHDRRSGPPHRGDESGYRWTRDDHSASRQPEYRDMRDGFRRKSFYSSHYARERSPYKRDNTFFRESPVGRKDSPHSRSGSSVSSRSYSPERSKSYSFHQSQHRKSVRPGASYKRQNEGNPERDKERPVQSLKTSRDTSPSSGSAVSSSKVLDKPSRLTEKELAEAASKWAAEKLEKSDESNLPEISEYEAGSTAPLFTDQPEEPESNTTHGIELFEDSQLTTRSKAIASKTKEIEQVYRQDCETFGMVVKMLIEKDPSLEKSIQFALRQNLHEIESAGQTWQQVPPVRNTEMDHDGTPENEGEETAQSAPQPPQAPQPLQPRKKRVRRTTQLRRTTGAPDITWGMLKKTTQEAERILLRTQTPFTPENLFLAMLSVVHCNSRKDVKPENKQ [PPHLN1]”: the thermal stability score in the data set with HeLa Kyoto [1] (setting [5]) turned out to be 0.616; in the data set on HeLa Kyoto [1] (cell cycle stage: mitosis) it was 1.63. The results for the melting temperature in the data set on HeLa Kyoto [2] (cell cycle stage: G1/S) and in the data set with HeLa Kyoto [2] (cell cycle stage: mitosis) were 52.2 °C and 50.4 °C, respectively. The “solubility in G1/S (log2)” value in the data set on HeLa Kyoto [3] was -0.763. In the data set on HeLa Kyoto [4], the “solubility change mitosis (log2)” value came to 0.849.
